Consider 2 substances from PMC3762824.

Test [1] addresses Argonaute 2 (human (endogenous in U937, U1, J1.1, HEK293T)) (UniProt Q9UKV8).
Test [2] shares this target. This is another data set of the same source.

Chain of UniProt Q9UKV8 (Q9UKV8 whole entry): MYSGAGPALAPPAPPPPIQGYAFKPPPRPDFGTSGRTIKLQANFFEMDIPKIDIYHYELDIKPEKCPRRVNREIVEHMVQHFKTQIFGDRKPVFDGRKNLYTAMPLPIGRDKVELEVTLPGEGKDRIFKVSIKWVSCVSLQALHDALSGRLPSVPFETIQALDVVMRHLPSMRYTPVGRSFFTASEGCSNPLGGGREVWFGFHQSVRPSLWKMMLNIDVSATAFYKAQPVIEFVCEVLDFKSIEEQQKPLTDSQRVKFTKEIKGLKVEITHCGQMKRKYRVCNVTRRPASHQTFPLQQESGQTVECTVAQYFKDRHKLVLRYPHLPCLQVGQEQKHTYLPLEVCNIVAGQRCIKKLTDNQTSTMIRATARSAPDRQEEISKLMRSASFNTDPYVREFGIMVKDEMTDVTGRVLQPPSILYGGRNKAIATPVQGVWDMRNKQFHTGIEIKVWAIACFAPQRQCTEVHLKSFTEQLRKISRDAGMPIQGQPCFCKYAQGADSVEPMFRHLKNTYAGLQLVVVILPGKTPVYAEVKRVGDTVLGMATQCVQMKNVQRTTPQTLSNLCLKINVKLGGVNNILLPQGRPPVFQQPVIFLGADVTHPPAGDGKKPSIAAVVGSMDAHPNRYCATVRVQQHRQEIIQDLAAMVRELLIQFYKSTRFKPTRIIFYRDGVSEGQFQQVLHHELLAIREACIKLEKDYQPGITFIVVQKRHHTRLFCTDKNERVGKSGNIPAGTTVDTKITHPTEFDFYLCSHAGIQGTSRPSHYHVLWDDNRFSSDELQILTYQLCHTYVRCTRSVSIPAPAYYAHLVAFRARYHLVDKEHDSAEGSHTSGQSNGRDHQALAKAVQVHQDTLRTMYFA

Substance “Nef-EYFP fusion protein (natural protein)” came in with a slicer assay: cleavage of 32P-labelled let-7a RNA by Ago2 immunoprecipitates from U937/Nef-EYFP cells compared to U937/EYFP cells in test [1] below 50%. Consider wild type Nef (natural protein), for which the RLuc-let7a reporter luciferase activity against the empty vector, U937 or HEK293T cells co-transfected with the Nef expression vector in test [2] was determined as 70%.
